{"source": "patent US20250145711A1", "about": "(Janssen / Centocor, published 2025)", "binders": {"B1": {"name": "CD3B2030 N106A (scFv)", "scFv": "QVQLVQSGAEVKKPGSSVKVSCKASGYTFTRSTMHWVKQAPGQGLEWIGYINPSSAYTNYNQKFQGRVTLTADKSTSTAYMELSSLRSEDTAVYYCASPQVHYDYAGFPYWGQGTLVTVSSGGSEGKSSGSGSESKSTGGSEIVLTQSPATLSASPGERVTLSCSASSSVSYMNWYQQKPGQAPRRWIYDSSKLASGVPARFSGSGSGRDYTLTISSLEPEDFAVYYCQQWSRNPPTFGGGTKVEIK"}, "B2": {"name": "CD3B2030 N106K (scFv)", "scFv": "B1 scFv with A106K"}, "B3": {"name": "CD3B2030 N106S (scFv)", "scFv": "B1 scFv with A106S"}, "B4": {"name": "CD3B2030 N106F (scFv)", "scFv": "B1 scFv with A106F"}, "B5": {"name": "CD3B2030 N106H (scFv)", "scFv": "B1 scFv with A106H"}, "B6": {"name": "CD3B2051 N106A (scFv)", "scFv": "B1 scFv with I48M, W187L"}, "B7": {"name": "CD3B2051 N106H (scFv)", "scFv": "B1 scFv with I48M, A106H, W187L"}, "B8": {"name": "CD3B2030 N106L (scFv)", "scFv": "B1 scFv with A106L"}, "B9": {"name": "CD3B2030 N106G (scFv)", "scFv": "B1 scFv with A106G"}, "B10": {"name": "CD3B2051 N106E (scFv)", "scFv": "B1 scFv with I48M, A106E, W187L"}, "B11": {"name": "CD3B2030 N106R (scFv)", "scFv": "B1 scFv with A106R"}, "B12": {"name": "CD3B2051 N106G (scFv)", "scFv": "B1 scFv with I48M, A106G, W187L"}}, "note": "Positions count from the first letter of the chain named. Numbers in names are those of the source."}
{"molecular_target": "T1, TRCW5 antigen (CD3δε-Fc-Avi) (biotinylated (site not stated))", "T1 construct": "also called recombinant CD3", "T1 sequence (chain, as listed by the source mutant limits assumed)": "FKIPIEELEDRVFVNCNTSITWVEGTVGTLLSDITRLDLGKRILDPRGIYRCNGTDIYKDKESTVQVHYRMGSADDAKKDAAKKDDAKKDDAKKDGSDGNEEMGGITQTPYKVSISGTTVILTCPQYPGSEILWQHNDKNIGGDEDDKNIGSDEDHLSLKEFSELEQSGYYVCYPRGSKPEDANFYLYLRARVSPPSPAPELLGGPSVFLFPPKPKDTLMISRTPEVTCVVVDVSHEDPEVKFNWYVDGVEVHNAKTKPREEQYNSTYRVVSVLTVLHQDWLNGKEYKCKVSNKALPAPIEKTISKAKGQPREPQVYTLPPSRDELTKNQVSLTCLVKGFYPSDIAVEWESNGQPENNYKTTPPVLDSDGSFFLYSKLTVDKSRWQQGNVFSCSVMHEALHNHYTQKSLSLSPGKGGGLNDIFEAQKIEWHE", "assay": "ELISA", "units": {"EC50": "nM"}}
{"binder": "B1", "EC50": 12.8}
{"binder": "B2", "EC50": 11.7}
{"binder": "B3", "EC50": 19.1}
{"binder": "B4", "EC50": 9.7}
{"binder": "B5", "EC50": 10.6}
{"binder": "B6", "EC50": 12.1}
{"binder": "B7", "EC50": 10.9}
{"binder": "B8", "EC50": 11.4}
{"binder": "B9", "EC50": 14.3}
{"binder": "B10", "EC50": 8.05}
{"binder": "B11", "EC50": 10.6}
{"binder": "B12", "EC50": 13.8}
{"molecular_target": "T1, TRCW5 antigen (CD3δε-Fc-Avi)", "assay": "binding after heat", "units": {"% Retained 55° C.": "%", "% Retained 60° C.": "%", "% Retained 65° C.": "%"}}
{"binder": "B1", "% Retained 55° C.": 111, "% Retained 60° C.": 103, "% Retained 65° C.": 55.6}
{"binder": "B2", "% Retained 55° C.": 99.7, "% Retained 60° C.": 87.2, "% Retained 65° C.": 7.3}
{"binder": "B3", "% Retained 55° C.": 64.6, "% Retained 60° C.": 19, "% Retained 65° C.": 0.6}
{"binder": "B4", "% Retained 55° C.": 106, "% Retained 60° C.": 83.3, "% Retained 65° C.": 21.8}
{"binder": "B5", "% Retained 55° C.": 104, "% Retained 60° C.": 98.9, "% Retained 65° C.": 55.7}
{"binder": "B6", "% Retained 55° C.": 98.9, "% Retained 60° C.": 97, "% Retained 65° C.": 33.3}
{"binder": "B7", "% Retained 55° C.": 103, "% Retained 60° C.": 84.2, "% Retained 65° C.": 9}
{"binder": "B8", "% Retained 55° C.": 107, "% Retained 60° C.": 100, "% Retained 65° C.": 25.6}
{"binder": "B9", "% Retained 55° C.": 115, "% Retained 60° C.": 59.8, "% Retained 65° C.": 1.7}
{"binder": "B10", "% Retained 55° C.": 78.4, "% Retained 60° C.": 15.4, "% Retained 65° C.": 0.5}
{"binder": "B11", "% Retained 55° C.": 107, "% Retained 60° C.": 104, "% Retained 65° C.": 53.8}
{"binder": "B12", "% Retained 55° C.": 98.9, "% Retained 60° C.": 33.1, "% Retained 65° C.": 1.5}
